# IntAct's records for PubMed 32911434
# B1: Nuclear factor erythroid 2-related factor 2 (Homo sapiens), Q16236 (parent)
# chain: MMDLELPPPGLPSQQDMDLIDILWRQDIDLGVSREVFDFSQRRKEYELEKQKKLEKERQEQLQKEQEKAFFAQLQLDEETGEFLPIQPAQHIQSETSGSANYSQVAHIPKSDALYFDDCMQLLAQTFPFVDDNEVSSATFQSLVPDIPGHIESPVFIATNQAQSPETSVAQVAPVDLDGMQQDIEQVWEELLSIPELQCLNIENDKLVETTMVPSPEAKLTEVDNYHFYSSIPSMEKEVGNCSPHFLNAFEDSFSSILSTEDPNQLTVNSLNSDATVNTDFGDEFYSAFIAEPSISNSMPSPATLSHSLSELLNGPIDVSDLSLCKAFNQNHPESTAEFNDSDSGISLNTSPSVASPEHSVESSSYGDTLLGLSDSEVEELDSAPGSVKQNGPKTPVHSSGDMVQPLSPSQGQSTHVHDAQCENTPEKELPVSPGHRKTPFTKDKHSSRLEAHLTRDELRAKALHIPFPVEKIINLPVVDFNEMMSKEQFNEAQLALIRDIRRRGKNKVAAQNCRKRKLENIVELEQDLDHLKDEKEKLLKEKGENDKSLHLLKKQLSTLYLEVFSMLRDEDGKPYSPSEYSLQQTRDGNVFLVPKSKKPDVKKN
# B2: Nuclear factor erythroid 2-related factor 2 (Homo sapiens), Q16236 (parent)
# chain: B1 chain
# partner: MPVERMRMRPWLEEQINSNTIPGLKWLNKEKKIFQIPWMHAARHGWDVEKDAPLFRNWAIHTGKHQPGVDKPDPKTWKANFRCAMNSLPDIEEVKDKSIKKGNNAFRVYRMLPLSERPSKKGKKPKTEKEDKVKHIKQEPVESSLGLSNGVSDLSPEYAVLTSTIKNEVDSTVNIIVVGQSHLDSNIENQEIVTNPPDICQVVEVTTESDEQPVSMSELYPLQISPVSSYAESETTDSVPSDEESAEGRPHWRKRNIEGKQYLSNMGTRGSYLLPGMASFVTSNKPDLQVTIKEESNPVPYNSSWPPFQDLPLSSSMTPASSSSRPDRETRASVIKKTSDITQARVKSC
# B3: Nuclear factor erythroid 2-related factor 2 (Homo sapiens), Q16236 (parent)
# chain: B1 chain
# partner: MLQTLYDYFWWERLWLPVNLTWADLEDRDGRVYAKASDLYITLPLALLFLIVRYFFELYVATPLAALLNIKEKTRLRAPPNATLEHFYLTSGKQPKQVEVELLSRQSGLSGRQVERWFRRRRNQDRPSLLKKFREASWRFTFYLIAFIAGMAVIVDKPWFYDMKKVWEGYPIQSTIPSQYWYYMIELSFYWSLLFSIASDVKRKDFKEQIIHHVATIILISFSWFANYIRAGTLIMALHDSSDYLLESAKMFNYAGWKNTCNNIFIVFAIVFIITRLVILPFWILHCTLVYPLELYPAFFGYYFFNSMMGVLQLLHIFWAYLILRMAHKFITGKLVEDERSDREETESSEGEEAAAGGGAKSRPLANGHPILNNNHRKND
# Variants of: B1
# Conditions: with brpf3_human BRPF3, Q9ULD4
# Sequence of brpf3_human BRPF3, Q9ULD4 (Q9ULD4 whole entry): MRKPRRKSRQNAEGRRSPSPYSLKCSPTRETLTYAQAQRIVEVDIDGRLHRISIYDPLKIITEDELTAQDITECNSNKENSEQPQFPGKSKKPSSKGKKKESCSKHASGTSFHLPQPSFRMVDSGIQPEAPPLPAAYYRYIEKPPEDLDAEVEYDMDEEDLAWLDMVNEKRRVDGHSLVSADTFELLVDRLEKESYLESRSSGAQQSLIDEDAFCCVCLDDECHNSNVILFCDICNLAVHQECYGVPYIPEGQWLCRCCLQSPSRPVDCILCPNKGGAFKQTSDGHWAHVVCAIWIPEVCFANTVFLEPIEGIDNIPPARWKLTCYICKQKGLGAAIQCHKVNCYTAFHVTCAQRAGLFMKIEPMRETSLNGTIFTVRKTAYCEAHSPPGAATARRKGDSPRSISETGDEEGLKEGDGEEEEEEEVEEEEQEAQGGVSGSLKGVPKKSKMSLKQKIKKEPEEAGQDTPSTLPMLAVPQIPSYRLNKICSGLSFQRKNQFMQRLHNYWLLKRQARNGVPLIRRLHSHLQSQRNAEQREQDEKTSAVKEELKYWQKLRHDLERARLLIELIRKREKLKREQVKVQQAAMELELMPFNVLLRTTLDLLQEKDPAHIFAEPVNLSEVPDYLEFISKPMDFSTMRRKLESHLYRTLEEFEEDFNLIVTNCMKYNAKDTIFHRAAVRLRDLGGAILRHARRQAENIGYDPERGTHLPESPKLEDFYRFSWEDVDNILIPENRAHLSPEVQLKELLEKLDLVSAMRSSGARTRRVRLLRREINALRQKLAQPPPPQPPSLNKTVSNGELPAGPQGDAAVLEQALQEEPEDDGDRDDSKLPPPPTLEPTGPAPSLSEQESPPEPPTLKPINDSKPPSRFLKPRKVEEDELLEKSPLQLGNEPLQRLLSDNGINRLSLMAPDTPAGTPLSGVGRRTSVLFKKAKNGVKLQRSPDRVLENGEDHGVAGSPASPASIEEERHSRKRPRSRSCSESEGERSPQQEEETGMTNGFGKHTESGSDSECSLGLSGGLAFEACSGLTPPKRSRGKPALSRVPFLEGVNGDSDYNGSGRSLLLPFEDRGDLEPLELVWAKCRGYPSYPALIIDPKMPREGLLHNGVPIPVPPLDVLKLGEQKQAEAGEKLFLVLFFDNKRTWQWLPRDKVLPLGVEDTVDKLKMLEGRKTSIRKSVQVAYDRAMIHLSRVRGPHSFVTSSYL
row,Variant,effect of a mutation on the interaction
1,S408A,decreasing interaction strength
2,T559D,decreasing interaction strength
3,Y576E,decreasing interaction strength
4,Y576F,decreasing interaction strength

# Variants of: B1
# Conditions: with ima1_human KPNA2, P52292
row,Variant,effect of a mutation on the interaction
1,T559D,decreasing interaction strength
2,Y576E,decreasing interaction strength

# Variants of: B1
# Conditions: with tf65_human RELA
row,Variant,effect of a mutation on the interaction
1,S40D,increasing interaction strength

# Variants of: B1
# Conditions: with apex1_human APEX1, P27695
# Sequence of apex1_human APEX1, P27695 (P27695 whole entry): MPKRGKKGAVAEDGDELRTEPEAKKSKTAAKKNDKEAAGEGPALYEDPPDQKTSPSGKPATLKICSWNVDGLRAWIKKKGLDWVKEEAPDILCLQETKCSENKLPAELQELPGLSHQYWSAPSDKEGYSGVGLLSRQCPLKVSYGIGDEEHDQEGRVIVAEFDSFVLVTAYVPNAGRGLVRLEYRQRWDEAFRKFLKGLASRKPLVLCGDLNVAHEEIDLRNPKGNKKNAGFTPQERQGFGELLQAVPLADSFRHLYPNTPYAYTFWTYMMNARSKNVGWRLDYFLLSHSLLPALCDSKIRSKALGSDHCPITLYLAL
row,Variant,effect of a mutation on the interaction
1,S40D,increasing interaction strength

# Variants of: B2
# Conditions: with irf2_human IRF2, P14316
row,Variant,effect of a mutation on the interaction
1,S408A,decreasing interaction strength
2,T559D,decreasing interaction strength
3,Y576E,decreasing interaction strength
4,Y576F,decreasing interaction strength

# Variants of: B3
# Conditions: with cers2_human CERS2, Q96G23
row,Variant,effect of a mutation on the interaction
1,Y576E,increasing interaction strength
